Measured values taken from patent publication US6461630.

Biological target: demineralized, guanidine-extracted bovine collagen carrier matrix material (bovine) (UniProt P02453)
Experiment: OP-1 in 47.5% ethanol/0.01% TFA incubated 3 h with bovine collagen matrix; fraction bound to the matrix before lyophilization

OP-1, sequence (P18075 293-431 limits assumed): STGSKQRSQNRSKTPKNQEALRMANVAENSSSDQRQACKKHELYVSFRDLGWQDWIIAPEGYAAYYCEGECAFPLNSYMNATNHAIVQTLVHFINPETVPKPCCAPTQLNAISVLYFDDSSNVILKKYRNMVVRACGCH

OP-1 (from UniProt P18075 293-431) (ligand)
% OP-1 bound at 3 hr: 53 to 64%
